Measured values as given in the DeepSol protein solubility set.

Test: soluble on expression in E. coli; label from the status in PepcDB or PDB records

Sequence | soluble on expression in E. coli
MGSDKIHHHHHHDFEELNTNPFEMTDEMGIRDGVAVGGAVMAMQRAVITVGTQADDTEAINQYQVAYNLSADSWSGFFGQNNNWYSGSNNTTYYLQDNWVAATYTNSYTTLLSSWKKIKQESEKNETPEIFALAQILKISAWHKTLESFGPIPYTHAGEPALVIPFDSEQVAFNAMFADLTAAIEALTVRAEQGATIVADYDAVYAGDTRKWVKYANSLMLRLAMRISYADETTAQKYARQALNHPFGVMTSKSDEAQMSTGAGMVFRNNIDWLANQYNECRMGSSMFSYLLGYQDPRLSAYFEASPSAYAVAAFDGKNYQAVPPGNANQQNTIYTDFSKPNITSNTPTYWMRASEVYFLRAEAALRWGSEFGDAEALYEQGVATSFDENGISSSVDDYLAFGLTPIAHNMRASYYSYNAAAPTTATPAFSGGTEQKLEKIMIQKWIALYPNGHEAWTEWRRTGYPKLNQVQTNRGQGVTREGGIRRMVYPVSFYQSAEDRANYEEALKLLGGLDKDKATTQLWWDCKNKIY | not soluble
MGSDKIHHHHHHPWRLLTPDQRYQKRQSQLKSTMSDFFTWCESVHALPQSKFGRAIDYALSQREAMENVLLDGRLELSNNRVERAVKELVIGRKNWLFSTSFKGARSSGIILSVMRSAEANGLDCRKYLEYLFTELPNLSVPGDSKALQDYLPWSSQVRAICAR | not soluble
MKYRSVFDIIGPVMIGPSSSHTAGAARMGQVARQLFRHEPERVSISLYGSFAKTYRGHGTDVALIGGILGFETDDLRIPEALEIAKEREIEVEFIEEDANAPHPNTARIRLYKGEEEIEVVACSIGGGKIEVVELNGFDLQLSGTSPALLIVNNDRFGAIAAVASILAKHEINISTMSVSRKEKGRRALMVIETDEILADEVIEEIKAQQNICQVTIME | not soluble
MKSKFFAQNRERLVNTLPDESITILFAGQAPHMSADAHYKFVPNRNFYYVTGIDEPNVIFMLKKFGNSVEETLFIEKSDPVMEKWVGKTVSNEEAEKISGIKKVIYLDSFEKTMSNIFFTENVKHLYLDLECREWKGTETKTLAFAKHVREQYPHVTIGNVYPNICELRVFKTDEEIEIIKEAIAVTKDGIYNVLKHAKADMMEYELEAQFDFTLKSSGIKHHAFNTILASGKNATVLHYEDNDAQIQNGDLVLLDLGAQKDYYNADISYTFPANGTFSSRQKQIYNIVLNALKETTEIIKPGLKFAALNEHAKKVLAEGCKAVGLIQEDEELSKYYYHGVSHFLGLDTHDVGTYKDRVLEEGMVITIEPGLYIEEESIGIRIEDDILVTKDGHENLSKDIIREVEEIEEFMRENNVNVKQDEVVTK | soluble
MDLAKLGLKEVMPTKINLEGLVGDHAFSMEGVGEGNILEGTQEVKISVTKGAPLPFAFDIVSVAFGYGNRAYTGYPEEISDYFLQSFPEGFTYERNIRYQDGGTAIVKSDISLEDGKFIVNVDFKAKDLRRMGPVMQQDIVGMQPSYESMYTNVTSVIGECIIAFKLQTGKHFTYHMRTVYKSKKPVETMPLYHFIQHRLVKTNVDTASGYVVQHETAIAAHSTIKKIEGSLPVDHHHHHH | soluble
MEPPLTVGAWTMTADSTVTEPIAAAATTTIVADVAIVGGGLAGSLAAAVLARAGHRVALVDKRAVYPDEFRVEKIGGPQLEMFRRLGFIRGLASVACPYDQVLNVREGKVVDVSVGQAYGLPYAGLVAMARGQIPDPSSLIVDEVTAVTCSDDVQHLELASGRRLNARLVVLATGMAGALGYKLGIRRRVLAAGHSVSFGFTIVRRDGTPFDFKALTCYGERTSDGVDYLSLFPVPAGMRANLFMFRDPTDPVMRDLRRDTEATVLRLLPGLQPYLGDFRVTDRVQNWVMDLSVVEGHLQPGVVLIGDAFQTNCPAAGTGVARLLVDVERLCTEYAPRWLATEGMGKEKISEFYSDRDKIAADQQSLKMARFRQALTSRDDISWDVRRRLHFLRRSITHRVDQMRPGWLAQVRSALRALEHHHHHH | not soluble
GDIVAVHPIRRGTAEAIEVVAHGDKKTSAIIGRRISGIKWPEGCHIAAVVRAGTGETIMGHHTETVIQDGDHIIFFVSRRRILNELEKLIQVKMGFFG | not soluble
MNTENPIEKPFRKTGDPVDLTSESPLHPRRKSRRIMVGPVPVGGGAPISVQSMTNTLTANVPATLQQIAELTAAGCDIVRVAVPSQDDADALPEICRKSPIPVIADIHFQSKYVFQAIDAGCAAVRVNPGNIRKFDEVGPDICKAATDAGISLRIGVNAGSLDKELYAKYGGPTPEALVASALKEAHMFEDVGFHDFKISVKHHDVITMVETYRLLASKGDWPLHLGVTEAGPAWQGTIKSCLAFGALLAEGIGDTIRVSLSAPPAEEVKVGCKLLEYMGLRPRKFDIISCPSCGRAQVDVIQLASAVTEGLKDVTAPIRVAVMGCIVNGPGEAREADLGVASGNGKGQIFIKGKVIKTVPEDQIVDTLLTIANDIAAQMEADGQVPVNSTGPVVVPIQHPGHLEHHHHHH | not soluble
PFKESQARGLLQDNMANSYNGGDFEDGLLNLSKEVFPTDKYLYQDGQFLDKKTINAYLNPKYTKREIDKMSEKDKKDKKANENLGLNPSHEGETNPEKIAEKSPAYLSNILEQDFYGGGDTKGKNIKGMTIGLAMNSVYYYKKEKDGPTFSKKLDDSEVKKQGKQMASEILSRLRENDDLKDIPIHFAIYKQSSEDSITPGEFITQATAEKSQTKLNEWHNINEKSALLPSSTAADYDENLNNNFKQFNDNLQSYFSNFTQAVGKVKFVDKKPQRLVVDLPIDYYGQAETIGITQYVTEQANKYFDKIDNYEIRIKDGNQPRALISKTKDDKEPQVHIYSN | soluble
MSFELPALPFAKDALEPHISAETLDYHHGKHHNTYVVKLNGLIPGTEFEGKTLEEIIKTSTGGVFNNAAQIWNHTFYWNCLAPNAGGQPTGAVAAAIDAAFGSFEEFKAKFTDSAINNFGSSWTWLVKNADGSLAIVNTSNAATPLTDEGVTPLLTVDLWEHAYYIDFRNVRPDYMGAFWSLVNWSFVEENLAK | soluble
MKIKTLLSIITAMALLILGTEVATAQSTGVPTIDSGSPESNQPLNDTMITTKVKAELAIAEGIKSGDISVETVNGVVILTGTQPNEMLIKKAEEVAKSVKDVKQVDISGLTVNTTTAD | not soluble
MGSDKIHHHHHHMYLSQLKAGGVICRQGETARLVPGFSSTYDLAKAAIAAKVSITDLIAKQGAGDTVDLAALAASGKLDCPVRHPDAAHMFLTGTGLTHTGSASARDNMHADTAGMSDSMKMFRMGLEGGKPKAGEWGVQPEWFYKGTGVNAIAPGDGLESPSFALDGGEEPEIAGFYVIDNDGTPVRLGFSLANEFSDHVTEKINYLYLAHSKLRPASFGPELLVGDLPANVTGASKILRDGKTVWEKPFLSGEDNMSHTIANLEYHHFKYGLFCQPGDLHVHMFGTATLSFADGFKTVPGDVFEVSASQFGLPLQNPLVVAAETPFAVKTL | not soluble
MAHHHHHHMKATKAKSGNTATNAVPFNNAPLKIVFLDCDGVVSPFGGPLFAPRQMKFLADIINGSGAQIVLSSSWRTTDFGRKEVARQLTQFGMPVFIDCTPTLPDKPRSVEILSWIDSNKRKYNIVNFVALDDINLPLSAPDRNFFARHAIVTNATTGLTEANVKQALQMLSDTNNI | soluble
MAAQRLGKRVLSKLQSPSRARGPGGSPGGLQKRHARVTVKYDRRELQRRLDVEKWIDGRLEELYRGMEADMPDEINIDELLELESEEERSRKIQGLLKSCGKPVEDFIQELLAKLQGLHRQPGLRQPSPSHDGSLSPLQDRARTAHP | soluble
NGYEALIMTHSAVTDPPLMIRSADNSLIKADDKTLLTALEAEGIGSYSFILTGEGLVKTKYRQQAVSLMGVDDRYPRTVKIDSIVFAGTFATDTLSGATALNVGAAIATEMQLGAGFVEAVEVIVPRRIGLINPLVPAGAFKSLQGQVASVFASGLQPEDNSIILSIDSLRKLLDYSDHEAEAVAIQLRTGSDAEQIALRLKETLGDSYQVLDLAGQHPEITHLIAMEKWMS | not soluble
SLKITDVQLTAIGMPRLTGFVNKHVIVQLFTDEGIEGIGEMSDFSHLPKYAVDIVDLERTLKQILVGKNPFDIAPINTELNGNFPEAMYYYEKGSFIRNGVDTALYDLCAKALGVSVSDLLGGRQREKIKVCFPIFRHRFMDEVEANLELVKKQYEKGFDVFRLYVGKNVDADEAFLAGVYNEFGGKVKVKSLDFSHLLDWKEALRITRRLAKYPIDLVESPALRNDFAGLHHFRMRCELPVSEHVWSLRQQSEMIKHDSVDIFNIAPVFIGGITQARKAADAAAVAEKSVLIGTTQELSIGTTAMAYFGSTLDHLNYISDPTGPELYVGDVVKNKVNYENGYLHLPERSTIGLGMELDWEKVEQYRVESLNWEDVSVHQLQDRTAQTRA | not soluble
MSLKKEGDATAVLIGYPSVGKSTLLNKLTGAKSEVADYDFTTLKPVPGILNYKGASIQIIDVPGIIEGAASGRGRGKEVISAVRVADLIIIVADVFNLHTIDIVKRELYEGGIRLDQKPPDVVIRKKERGGVRISSTVPLSIDEATITSVLKEYKIHSADVVIREDITIERLIDALAGNRVYIPSLTVVNKIDLMDVDVADAIKVSAEKGINLDLLKEQIYRKLEFIRVYLKPPGGKVDFSEPMILRRGATVEDICRKLHRDFVENFRYAKVWGKSVKFDGQRVGLEHVVEDGDIITIYAEGHHHHHH | soluble
MEDKVDVLIIGGGASGVTSGIQSARMGANTLILEESTWLGGMLTSAGVSAVDGNYRLPAGLWGEFKNRLSDYYGGLDSLKTGWVSNVLFEPSVGNKILHEMVAAENNLKVWKQACLEEVKRTGDEWVAKVKVEGQGVKTVRAKVMIDATELGDVAKMCGLEHHHHHH | not soluble
MIVHELTDIGHLFTEQLQEGYYVIRETYQNVLVEPEDGDTVRQVDAGTEEVVTIVFDPGDEYSLICLDTYTFADGIPSLAELKETIAAEYDVFVNDRWAAPSL | not soluble
MENKIQELTDKIYREGVEKGNEEAQRLIANAQEEAKKIIEDARKEADSIVAASRKSADELADNTKSELKLFSGQAVNALKSEIATMVTDKLITASVKDFAQDKDYLNAFIVALASKWSVDEPIVISTADAESLKKYFAAHAKALLDKGVTIEQVNGIKTLFTVSPADGSYKVNFGEEEFMNYFKAFLRPQLVEMLF | not soluble
GSDGTREFLTFEVPLNDSGSAGLGVSVKGNRSKENHADLGIFVKSIINGGAASKDGRLRVNDQLIAVNGESLLGKANQEAMETLRRSMSTEGNKRGMIQLIVARRISRCNE | soluble
VKNKKFTIIGGDLRSVKLAELIVAEGNKVNIYGFKNANFEIGIEESEDLDHAIGEADVIVGPTPCSTDNETINTPFHSQKIFIKDIFKKMNKSQLFIAGRITDKIAQLADVYNVYSVDLLEREEMAVLNAIPTAEGAIQIAMEEMPITLHGSNALILGFGRIGKILAKMLHGIGSNVYVEARKYSDLAWIESYGYKPVFITELESYIDRANVIFNTIPSIVLDENLLRKVNKDCLLIDLASKPGGIDFEKAKEMGLKTIWALSLPGKVAPVTAAKFIKDTISNIIDELGV | not soluble
MGSDKIHHHHHHMTEVIRDIPFLATDRVEALLDIERHLIVEQSTIERWFRGQWQRTPPPFYASVDLRNAGFKLAPVDTNLFSAGFNNLNPEFSALYVSAIQHYLNQYHPGLERVLLIPENHTRNLFYLESVARLRELLELAGLDVRVGSLILEDRTVYDLPSGGQLLLEPLCRDDGRLSTRGFDAQLILLNNDLSGGVPEILAGLEQPILPPLAAGWRNRRKSQHFTHYRAVAQELAEVIGIDPWLIDPVFRRCQGIDFMRSEGRECLVANVDAVLEITRERYAHYGIHQRPFVIVKADAGTYGMGIMTAYSGEEFLDLNRKERTRMAKSKEGLPVSDVFIQEGVYTFEQTAQEAVAEPVVYMIGQQVLGGFYRVHTERGRDENLNAPGAHFEPMAFGQTCVLPCRKSPPDAPANRYYAYGVIARLTLVAAAREMADWRRQGTLETGQ | not soluble
